For assay [1], the target named is T1, human IL-6 receptor (hIL-6R) (Homo sapiens, UniProt P08887).
T1 sequence (P08887 20-357 limits assumed): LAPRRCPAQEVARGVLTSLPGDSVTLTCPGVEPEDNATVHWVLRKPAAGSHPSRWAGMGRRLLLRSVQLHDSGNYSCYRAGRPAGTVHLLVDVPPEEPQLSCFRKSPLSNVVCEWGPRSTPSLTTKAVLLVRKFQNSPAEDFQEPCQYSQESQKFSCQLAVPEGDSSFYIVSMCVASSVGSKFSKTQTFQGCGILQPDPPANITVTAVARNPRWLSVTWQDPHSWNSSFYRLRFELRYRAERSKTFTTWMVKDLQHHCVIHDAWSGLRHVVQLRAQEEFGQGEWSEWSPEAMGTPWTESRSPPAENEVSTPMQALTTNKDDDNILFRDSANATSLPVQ
The assay can be described thus: IgG ELISA for hIL-6R binding under small molecule conditions of Table 12. The settings on record: IgG 2.5 μg/mL. The procedure:
Three types of obtained antibodies 6RNMSC1-2_F02, 6RNMSC1-3_G02, and GC413 were subjected to ELISA under the nine conditions shown in Table 12. The antigen used was biotin-labeled hIL-6R.
First, a StreptaWell 96 microtiter plate (Roche) was coated with 100 μL of PBS containing biotin-labeled hIL-6R at room temperature for one hour or longer. […] 100 μL of each of the purified IgGs prepared at 2.5 μg/mL using Sample Buffer containing small molecules at the final concentrations shown in Table 12 were added to each well, and the plate was let still at room temperature for one hour to allow each IgG to bind to biotin-labeled hIL-6R present in each well. After washing with Wash Buffer containing small molecules at the final concentrations shown in Table 12, HRP-conjugated anti-human IgG antibody (BIOSOURCE) diluted with Sample Buffer containing the same small molecules was added to each well and the plate was incubated for one hour. After washing with Wash Buffer containing respective small molecules, the chromogenic reaction of TMB single solution (ZYMED) added in each well was terminated by adding sulfuric acid. Then, the color development was measured by absorbance at 450 nm.
Background: An ELISA detects its analyte on a solid surface through an enzyme-linked reagent.

In a further assay the target is T2, hIL-6R (Homo sapiens, UniProt P08887).
T2 sequence (P08887 20-357): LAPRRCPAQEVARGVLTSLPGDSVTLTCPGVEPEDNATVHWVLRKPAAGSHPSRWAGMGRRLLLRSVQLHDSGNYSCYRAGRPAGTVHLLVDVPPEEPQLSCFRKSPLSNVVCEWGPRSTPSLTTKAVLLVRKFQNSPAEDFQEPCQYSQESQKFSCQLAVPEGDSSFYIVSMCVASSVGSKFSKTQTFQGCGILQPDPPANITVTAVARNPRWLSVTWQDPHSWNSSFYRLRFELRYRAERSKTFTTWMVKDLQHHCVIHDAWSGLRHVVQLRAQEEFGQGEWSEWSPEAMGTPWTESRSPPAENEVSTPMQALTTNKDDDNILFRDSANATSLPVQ
Format: binding. The conditions noted are these: Octet. The procedure:
Octet ([…]) was used to assess the effect of various small molecules on the antigen-antibody reaction between hIL-6R and the kynurenine-switch antibody 6RNMSC1-2_F02 obtained from a library. A total of eight molecules shown in Example (7-5), which are kynurenine and derivatives thereof, were evaluated as small molecules. The assay buffer used was TBS, pH 7.4, and measurements were carried out at 30° C. Biotinylated hIL-6R was immobilized onto a streptavidin sensor chip, the antibody was allowed to interact, and changes in the amount of its binding were observed. The antibody was diluted using the assay buffer or the assay buffer to which either one of the small molecules has been added. The final concentration of each small molecule was adjusted to 100 uM, while the final antibody concentration was adjusted to 10 μg/mL.

Assay [2] is classed as binding. The settings on record: Biacore T200, 15° C. The procedure: Kynurenine-dependent antibody 6RNMSC1-2_F02 obtained from the library was assessed for its binding to kynurenine and derivatives thereof using Biacore T200 (GE Healthcare). The following […] molecules were assessed as derivatives: the kynurenine isomer D-kynurenine and the derivatives 3-hydroxy-DL-kynurenine, 4-(4-methylphenyl)-4-oxobutyric acid, R00447436-000-001, RO0635389-000-001, R00438566-001-001, and RO0635390-000-001. The chemical structure of each compound is shown below.
An appropriate amount of protein A (Invitrogen) was immobilized onto Sensor chip CM4 (GE Healthcare) by the amine coupling method. The antibody of interest was captured thereon, and the antigen kynurenine and derivatives thereof were allowed to interact. The running buffer used was 50 mmol/L Tris-HCl, 150 mmol/L NaCl, 0.02% (w/v) Tween 20, 5% DMSO, pH 7.6. All measurements were carried out at 15° C. The antigens were diluted with the running buffer.
Then, the running buffer was run at a flow rate of 30 μL/min for 60 seconds to observe the dissociation of antigens from the antibody. Kinetic parameters, the association rate constant ka (1/Ms) and the dissociation rate constant kd (l/s), were calculated based on the sensorgrams obtained by the measurements. The dissociation constant KD (M) was calculated from these constants. Each parameter was calculated using Biacore T200 Evaluation Software (GE Healthcare).
On the technique in general: Surface plasmon resonance follows binding to a sensor surface in real time, without labels.

The target in assay [3] is T1, human IL-6 receptor (hIL-6R). Description: IgG ELISA for hIL-6R binding in the presence of amino acids and amino acid metabolites (Table 14). The settings on record: IgG 2.5 μg/mL. The procedure: Meanwhile, each of the amino acids and metabolites thereof were appropriately prepared at the concentrations shown in Table 14 using the buffers shown in Table 13. The antigen used was biotin-labeled hIL-6R.
First, a StreptaWell 96 microtiter plate (Roche) was coated with 100 μL of PBS containing biotin-labeled antigens at room temperature for one hour or longer. […] 100 μL of each of the purified IgGs prepared at 2.5 μg/mL using Sample Buffer containing small molecules at the final concentrations shown in Table 14 were added to each well, and the plate was let still at room temperature for one hour to allow each IgG to bind to the antigen present in each well. After washing with Wash Buffer containing amino acids and amino acid metabolites at the final concentrations shown in Table 14, HRP-conjugated anti-human IgG antibody (BIOSOURCE) diluted with Sample Buffer containing amino acids and amino acid metabolites was added to each well, and the plate was incubated for one hour. After washing with Wash Buffer containing the respective amino acids and amino acid metabolites, the chromogenic reaction of TMB single solution (ZYMED) added in each well was terminated by adding sulfuric acid. Then, the color development was measured by absorbance at 450 nm.

For assay [4] the target is unchanged. The assay can be described thus: phage ELISA for hIL-6R binding in the presence/absence of small molecule cocktail (SC). The conditions noted are these: absorbance at 450 nm. The procedure: From a single colony of E. coli obtained in (6-1), a phage-containing culture supernatant was collected according to a conventional method (Methods Mol. Biol. (2002) 178, 133-145). […] A StreptaWell 96 microtiter plate (Roche) was coated overnight with 100 μL of TBS containing biotin-labeled hIL-6R. […] After removing 2% skim milk/TBS, purified phages were added to each well of the plate, and the plate was left still at room temperature for one hour to allow antibody-presenting phages to bind to biotin-labeled hIL-6R present in each well in the presence/absence of SC. Each well was washed with TBST or SC/TBST, and HRP-conjugated anti-M13 antibody (Amersham Pharmacia Biotech) diluted with TBS or SC/TBS was added thereto, and the plate was incubated for one hour. After washing with TBST or SC/TBST, the chromogenic reaction of TMB single solution (ZYMED) added in each well was terminated by adding sulfuric acid. Then, the color development was measured by absorbance at 450 nm.

B1: 6RNMSC1-2_F02: antibody binding hIL-6R in the presence of kynurenine; heavy chain SEQ ID NO: 32, light chain SEQ ID NO: 33 (antibody, listed as Homo sapiens, V domains shown)
VH: QVQLVQSGAEVKKPGSSVKVSCKASGGTFSSYAISWVRQAPGQGLEWMGGIIPIFGTANYAQKFQGRVTITADESTSTAYMELSSLRSEDTAVYYCARDAPVVARPRGAFDIWGQGTMVTVSS
VL: DIVMTQTPLSSPVTLGQPASISCRSSQSLVHSDGNTYLSWLQQRPGQPPRLLIHEISNRFSGVPDRFSGSGAGTNFTLKISRVEAEDVGVYYCMQATQFPRTFGQGTKVEIK
With B1, the “absorbance under condition 9 (no small molecule) compared to condition 8 (cocktail of all small molecules)” value in assay [1] (absorbance at 450 nm) is recorded as “significantly lower”. Moreover, in assay [1] (conditions 1-9 of Table 12, absorbance at 450 nm), the “small molecule in whose presence the antibody binds hIL-6R” value is given as “binds to the antigen hIL-6R in the presence of kynurenine”. Also, in the assay with hIL-6R (100 uM small molecule), the “hIL-6R binding in the presence of 3-hydroxy-DL-kynurenine” value is recorded as “binding to hIL-6R was observed”, the “hIL-6R binding in the presence of RO0635389-000-001” value is “binding to hIL-6R was observed” and the “hIL-6R binding in the presence of RO0635390-000-001” value is “binding to hIL-6R was observed”. Also, in the assay with hIL-6R (30° C., antibody 10 μg/mL), the “hIL-6R binding in the absence of kynurenine” value is recorded as “not observed” and the “hIL-6R binding in the presence of 100 uM kynurenine” value is recorded as “bound to hIL-6R”. Besides, in assay [2], the “binding to 3-hydroxy-DL-kynurenine” value is listed as “bind”, the “binding to RO0635389-000-001” value was “bind” and the “binding to RO0635390-000-001” value is recorded as “bind”. Moreover, the “absorbance under condition 5 (3-hydroxy kynurenine solution)” value in assay [3] (3-Hydroxykynurenine 1 mM) was “high absorbance similarly to that under condition 1”. In addition, the “absorbance under condition 7 (no small molecule) compared to condition 1 (kynurenine solution)” value in assay [3] is listed as “significantly lower”. The “hIL-6R binding in the presence of tryptophan” value in assay [3] (Tryptophan 1 mM) was “does not bind to the antigen hIL-6R”. Also, the “binding activity to the antigen hIL-6R in the presence of a small molecule mixture” value in assay [4] was “having binding activity”.

Source of the values: patent US20210180049A1 (CHUGAI SEIYAKU KABUSHIKI KAISHA, priority 2013, published 2021).
